Literature values as cited in article PMC3324669.

Target: CD155 (Homo sapiens) (UniProt P15151)
UniProt P15151, sequence (P15151 21-343): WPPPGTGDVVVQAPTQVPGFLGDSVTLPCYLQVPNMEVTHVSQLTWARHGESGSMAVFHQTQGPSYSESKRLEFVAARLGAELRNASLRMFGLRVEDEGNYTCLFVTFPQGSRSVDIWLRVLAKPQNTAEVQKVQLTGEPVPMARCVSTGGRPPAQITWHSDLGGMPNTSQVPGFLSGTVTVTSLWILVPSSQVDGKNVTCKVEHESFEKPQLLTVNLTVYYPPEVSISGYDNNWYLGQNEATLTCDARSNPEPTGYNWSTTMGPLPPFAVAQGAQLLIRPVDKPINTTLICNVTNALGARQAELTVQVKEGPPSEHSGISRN

## CD226 (from UniProt Q15762)
  Kd: 2 nM
